“Also recorded” adds a separate entry of the source.
Key:
[1] = Native mass spectrometry of pH-induced changes in oligomeric state; type: physicochemical; details: for cooperativity of the pH-induced transition: native MS at different pH values; for pH transition point of disassembly (pH set point, pH0): evaluated from pH 7 down to pH 3; for reversibility of disassembly: pH lowered with acetic acid, then raised by ammonia or buffer exchange
Experimental: Samples were buffer exchanged twice into 200 mM ammonium acetate (NH4Ac; MilliporeSigma) using Micro Bio-Spin P-6 columns (Bio-Rad). Protein concentrations were determined by UV absorbance using a Nanodrop 2000c spectrophotometer (Thermo Fisher Scientific) and diluted to make up a 10-fold stock solution (50 μM and 16.7 μM monomer and trimer concentration, respectively). 1 μL of this solution was mixed with 9 μL 200 mM NH4Ac/50 mM triethylammonium acetate (TEAA; MilliporeSigma), adjusted with acetic acid (Fisher Scientific) to obtain the desired final pH and incubated on ice for 30 min. […] 5 μL samples were filled into an in-house pulled glass capillary and ionized by nESI at a monomer or a trimer concentration of 5 μM or 1.67 μM respectively. All pH titration data were acquired on an in-house modified SYNAPT® G2 HDMS (Waters Corporation) with a surface-induced dissociation (SID) device incorporated between a truncated trap traveling wave ion guide and the ion mobility cell (39). The following instrument parameters were used spray voltage 0.9-1.3 kV; sampling cone, 20 V; extraction cone, 2 V; source temperature, room temperature; trap gas flow, 4 mL/min; trap bins, 45V. The data were processed with MassLynx™ v4.1 and DriftScope™ v2.1. For relative quantification, charge state series were extracted from DriftScope™, and smoothed spectra (mean; window 20; number of smooths 20) were integrated.
Python scripts were written to generate theoretical models according Equation 1, and curve-fitting to native mass spectrometry data (FIGS. 1, 3, 5) according to Equation 2 by nonlinear least squares using curve fit from scipy.optimize. The free energy estimates for individual n, m, and l layers used in Equation 1 modeling were estimated by solving linear equations as follows: values for the free energy of folding for designs pRO-2 and variants were estimated from GdmCl denaturation experiments (FIG. 11); each of these designs have different numbers of n, m, and l layers, thus series of linear equations relating the number of each layer type to the total free energies of folding were solved to estimate dG values of the individual layers of each type.

[2] = Fluorescence dequenching liposome leakage (liposome disruption) assay; type: biochemical
Experimental: Liposomes composed of DOPC (1,2-dioleoyl-sn-glycero-3-phosphocholine), DOPC with 25% cholesterol (molar ratio to DOPC), 3:1 DOPC:POPS (1-palmitoyl-2-oleoyl-sn-glycero-3-phospho-L-serine), and 3:1 DOPC:POPS with 25% cholesterol were prepared identically to a final concentration of 5 mM total lipid as previously described (32); lipids from Avanti Polar Lipids. Lipids solubilized in chloroform were dried under nitrogen gas and stored under vacuum for a minimum of 2 hours to remove residual solvent. The dried lipid film was the resuspended in Tris buffer (10 mM Tris, 150 mM NaCl, and 0.02% NaN3 pH 8.0) containing 25 mM Sulforhodamine B (SRB) fluorophore (Sigma) and subjected to 10 sequential freeze thaw cycles in liquid nitrogen. Liposomes were extruded 29 times through 100 nm pore size polycarbonate filters (Avanti Polar Lipids) and purified from free fluorophore using a PD-10 gel filtration column (GE Healthcare) into storage buffer (10 mM Tris, 150 mM NaCl, and 0.02% NaN3 pH 8.0). Liposome size and homogeneity was analyzed by dynamic light scattering (DLS) using a Dynapro Nanostar™ DLS (Wyatt Technologies). On average liposome diameter ranged from 120-130 nm with low polydispersity. Liposomes were stored at 4° C. and used within 5 days of preparation.
Liposome disruption and content leakage was analyzed by fluorescence spectroscopy as previously described (32). […] The solution was rapidly acidified to the target pH by addition of a fixed volume of acidification buffer and incubated for 20 minutes. […] SRB fluorescence is independent of pH within the ranges used here. Finally. Triton X-100 (Sigma) was added to a final concentration of 1% to fully disrupt liposomes. Liposome disruption as indicated by content leakage and SRB dequenching was normalized using the formula [Fω−F(0)]/[F(Max)−F(0)] where F(0) is the average fluorescence intensity before acidification and F(Max) is the average fluorescence intensity ater addition of Triton X-100. All measurements were collected on a Varian Cary Eclipse spectrophotometer using an excitation/emission pairing of […] and 2.5 nm slit widths at 24° C. Any data plotted together was collected using the sum batch of liposomes.

B1: pRO-2.3-GS: pRO-2.3 with flexible GS loop, SEQ ID NO: 35-36 (protein)
chain 1: MGSHHHHHHGSGSENLYFQGSEYEIRKALEELKASTAELKRATASLRAITEELKKGGSGSGSEDALVEHNRAIVEHNAIIVENNRIIAAVLELIVRAIK
chain 2: GSEYEIRKALEELKASTAELKRATASLRAITEELKKGGSGSGSEDALVEHNRAIVEHNAIIVENNRIIAAVLELIVRAIK
[1]; native MS
  oligomeric state at pH 7 / neutral pH: retains its trimeric assembly at neutral pH
[1]
  cooperativity of the pH-induced transition: less cooperativity

B2: pRO-2-GS: pRO-2 with flexible GS loop, SEQ ID NO: 33-34 (protein)
chain 1: MGSHHHHHHGSGSENLYFQGSEYEIRKALEELKAATAELKRATASLRAITEELKKGGSGSGSEDALVEHNRAIVEHNAIIVEHNRIIAAVLELIVRAIK
chain 2: GSEYEIRKALEELKAATAELKRATASLRAITEELKKGGSGSGSEDALVEHNRAIVEHNAIIVEHNRIIAAVLELIVRAIK
[1]; native MS
  oligomeric state at pH 7 / neutral pH: loses its homogenous trimeric assembly at neutral pH

B3: SEQ ID NO: 37: pRO2.3, single-chain, GS linkers on all loops, asymmetrized, TEV site opposite to the termini direction (protein)
chain: GSEEEIKRLLEELRKSSEELRRITKELDDLSKELRVGGSGSGSEMLVEHNKLISEHNRIIVENNRIIVEILEAIARVGGSGSGSVEVERILDELRKSSEELDRVTKELKKLTEELDVGGSENLYFQGSGSVEALVRHNVLITRHNDIIVKNNDIINKILKLIAEAVGGSGSGSELERILRELEESTKELRKATEELRRLSEELKVGGSGSGSVEALVRHNEAIVEHNKIIVKNNDIIVKILELITERI
[2]; fused at its n-terminus to a nanoparticle
  liposome disruption relative to pRO2.3, nanoparticle fusion: as well as pRO2.3
[2]; linked-pH trimer
  kinetics of dissociation in the liposome assay: slower
[2]; linked-pH trimer, order of minutes
  membrane disruption level (dye leakage over time): same membrane disruption levels

B4: SEQ ID NO: 38: similar to pRO2.3, TEV site parallel to the termini, aromatic residues on the n-terminal helix (protein)
chain: GSEEEIKRLLEELRKSSEELRRITKELDDLSKELRVGGSGSGSEMLVEHNKLISEHNRIIVENNRIIVEILEAIARVGGSGSGSVEVERILDELRKSSEELDRVTKELKKLTEELDVGGSGSGSVEALVRHNVLITRHNDIIVKNNDIINKILKLIGEAVGGSENLYFQGSGSEFERWLRQLEESTKELRKFTEELRRFSEELKVGGSGSGSVEALVRHNEAIVEHNKAIVKNNDIIVKILELVTERI
[2]; compared with pRO2.3 homotrimer
  liposome disruption better than the pRO2.3 homotrimer: 5-10%

B5: pRO-2.1: pRO-2 variant, SEQ ID NO: 3-4 (protein)
chain 1: MGSHHHHHHGSGSENLYFQGSEYEIRKALEELKAALAELKRATASLRAITEELKKNPSEDALVEHNRAIVEHNAIIVEVLRIIAAVLELIVRAIK
chain 2: SEYEIRKALEELKAALAELKRATASLRAITEELKKNPSEDALVEHNRAIVEHNAIIVEVLRIIAAVLELIVRAIK
[1]; native MS
  pH transition point of disassembly (pH set point, pH0): ~3.5 pH

B6: pRO-2.3: pRO-2 variant, SEQ ID NO: 7-8 (protein)
chain 1: MGSHHHHHHGSGSENLYFQGSEYEIRKALEELKASTAELKRATASLRAITEELKKNPSEDALVEHNRAIVEHNAIIVENNRIIAAVLELIVRAIK
chain 2: SEYEIRKALEELKASTAELKRATASLRAITEELKKNPSEDALVEHNRAIVEHNAIIVENNRIIAAVLELIVRAIK
[1]
  reversibility of disassembly: Re-association was induced

B7: pRO-2.4: pRO-2 variant, SEQ ID NO: 9-10 (protein)
chain 1: MGSHHHHHHGSGSENLYFQGSEYEIRKALEELKAATAELKRATASLRASTEELKKNPSEDALVENNRLIVEHNAIIVEHNRIIAAVLELIVRAIK
chain 2: SEYEIRKALEELKAATAELKRATASLRASTEELKKNPSEDALVENNRLIVEHNAIIVEHNRIIAAVLELIVRAIK
[1]
  cooperativity of the pH-induced transition: less cooperative
  reversibility of disassembly: Re-association was induced
[1]; native MS
  pH transition point of disassembly (pH set point, pH0): higher transition pH

B8: pRO-2.2: pRO-2 variant, SEQ ID NO: 5-6 (protein)
chain 1: MGSHHHHHHGSGSENLYFQGSEYEIRKALEELKAALAELKRATASLRAILEELKKNPSEDAIVEAIRAIVEHNAIIVEVLRIIAAVLELIVRAIK
chain 2: SEYEIRKALEELKAALAELKRATASLRAILEELKKNPSEDAIVEAIRAIVEHNAIIVEVLRIIAAVLELIVRAIK
[1]; native MS, pH ~7 to ~3
  pH response of oligomeric state (pH-induced disassembly): eliminates the pH response altogether; also recorded: no significant pH response

B9: pRO-4: designed heterodimer, SEQ ID NO: 27-28, chains 81 and 82 (protein)
chain 1: MDEEDHLKKLKTHLEKLERHLKLLEDHAKKLEDILKERPEDSAVKESIDELRRSIELVRESIEIFRQSVEEEEGSSHHHHHHSSGENLYFQGDVKELTKILDTLTKILETATKVIKDATKLLEEHRKSDKPDPRLIETHKKLVEEHETLVRQHKELAEEHLKRTR
chain 2: MDEEDHLKKLKTHLEKLERHLKLLEDHAKKLEDILKERPEDSAVKESIDELRRSIELVRESIEIFRQSVEEEEGDVKELTKILDTLTKILETATKVIKDATKLLEEHRKSDKPDPRLIETHKKLVEEHETLVRQHKELAEEHLKRTR
chain 3: MDEEDHLKKLKTHLEKLERHLKLLEDHAKKLEDILKERPEDSAVKESIDELRRSIELVRESIEIFRQSVEEEE
chain 4: GSSHHHHHHSSGENLYFQGDVKELTKILDTLTKILETATKVIKDATKLLEEHRKSDKPDPRLIETHKKLVEEHETLVRQHKELAEEHLKRTR
modifications: Synthetic polpypeptide; (1)..(18) Optional residues
[1]; native MS
  pH transition point of disassembly (pH set point, pH0): ~4 pH

B10: pRO-4 L23A/V130A: pRO-4 mutant heterodimer, SEQ ID NO: 29-30, 83-84 (protein)
chain 1: MDEEDHLKKLKTHLEKLERHLKLAEDHAKKLEDILKERPEDSAVKESIDELRRSIELVRESIEIFRQSVEEEEGSSHHHHHHSSGENLYFQGDVKELTKILDTLTKILETATKVIKDATKLLEEHRKSDKPDPRLIETHKKLVEEHETLARQHKELAEEHLKRTR
chain 2: MDEEDHLKKLKTHLEKLERHLKLAEDHAKKLEDILKERPEDSAVKESIDELRRSIELVRESIEIFRQSVEEEEGDVKELTKILDTLTKILETATKVIKDATKLLEEHRKSDKPDPRLIETHKKLVEEHETLARQHKELAEEHLKRTR
chain 3: MDEEDHLKKLKTHLEKLERHLKLAEDHAKKLEDILKERPEDSAVKESIDELRRSIELVRESIEIFRQSVEEEE
chain 4: GSSHHHHHHSSGENLYFQGDVKELTKILDTLTKILETATKVIKDATKLLEEHRKSDKPDPRLIETHKKLVEEHETLARQHKELAEEHLKRTR
modifications: Synthetic polpypeptide; (1)..(18) Optional residues
[1]; native MS
  pH transition point of disassembly (pH set point, pH0): ~4.6 pH

From patent US20220144895A1, “DE NOVO DESIGN OF TUNABLE PH-DRIVEN CONFORMATIONAL SWITCHES” (University of Washington, priority 2019, published 2022)
